# FireProtDB (doi:10.1021/bi047926u)
# Where “and” joins values, the source holds several entries; their conditions need not be identical. Equal entries are not always repeated.
# B1: Manganese-dependent inorganic pyrophosphatase, P37487 (parent)
# chain: MEKILIFGHQNPDTDTICSAIAYADLKNKLGFNAEPVRLGQVNGETQYALDYFKQESPRLVETAANEVNGVILVDHNERQQSIKDIEEVQVLEVIDHHRIANFETAEPLYYRAEPVGCTATILNKMYKENNVKIEKEIAGLMLSAIISDSLLFKSPTCTDQDVAAAKELAEIAGVDAEEYGLNMLKAGADLSKKTVEELISLDAKEFTLGSKKVEIAQVNTVDIEDVKKRQAELEAVISKVVAEKNLDLFLLVITDILENDSLALAIGNEAAKVEKAFNVTLENNTALLKGVVSRKKQVVPVLTDAMAE
# Variants of: B1
# Settings: Bacillus subtilis (strain 168); pH 7.2; Thermal; CD; TES-KOH 21 mM; KCl 4 mM; reversible: No; structure 1K23; whole UniProt chain shown
row,Variant,Tm
1,MEKILIFGHQNPDTDTICSAIAYADLKNKLGFNAEPVRLGQVNGETQYALDYFKQESPRLVETAANEVNGVILVDQNERQQSIKDIEEVQVLEVIDHHRIANFETAEPLYYRAEPVGCTATILNKMYKENNVKIEKEIAGLMLSAIISDSLLFKSPTCTDQDVAAAKELAEIAGVDAEEYGLNMLKAGADLSKKTVEELISLDAKEFTLGSKKVEIAQVNTVDIEDVKKRQAELEAVISKVVAEKNLDLFLLVITDILENDSLALAIGNEAAKVEKAFNVTLENNTALLKGVVSRKKQVVPVLTDAMAE [H76Q],59 °C
2,MEKILIFGHQNPDTDTICSAIAYADLKNKLGFNAEPVRLGQVNGETQYALDYFKQESPRLVETAANEVNGVILVDHNERQQSIKDIEEVQVLEVIDHHRIANFETAEPLYYRAEPVGCTATILNKMYKENNVKIEKEIAGLMLSAIISESLLFKSPTCTDQDVAAAKELAEIAGVDAEEYGLNMLKAGADLSKKTVEELISLDAKEFTLGSKKVEIAQVNTVDIEDVKKRQAELEAVISKVVAEKNLDLFLLVITDILENDSLALAIGNEAAKVEKAFNVTLENNTALLKGVVSRKKQVVPVLTDAMAE [D149E],52 °C and 47 °C
3,MEKILIFGHQNPDTDTICSAIAYADLKNKLGFNAEPVRLGQVNGETQYALDYFKQESPRLVETAANEVNGVILVDHNERQQSIKDIEEVQVLEVIDHQRIANFETAEPLYYRAEPVGCTATILNKMYKENNVKIEKEIAGLMLSAIISDSLLFKSPTCTDQDVAAAKELAEIAGVDAEEYGLNMLKAGADLSKKTVEELISLDAKEFTLGSKKVEIAQVNTVDIEDVKKRQAELEAVISKVVAEKNLDLFLLVITDILENDSLALAIGNEAAKVEKAFNVTLENNTALLKGVVSRKKQVVPVLTDAMAE [H98Q],48 °C
4,MEKILIFGHQNPETDTICSAIAYADLKNKLGFNAEPVRLGQVNGETQYALDYFKQESPRLVETAANEVNGVILVDHNERQQSIKDIEEVQVLEVIDHHRIANFETAEPLYYRAEPVGCTATILNKMYKENNVKIEKEIAGLMLSAIISDSLLFKSPTCTDQDVAAAKELAEIAGVDAEEYGLNMLKAGADLSKKTVEELISLDAKEFTLGSKKVEIAQVNTVDIEDVKKRQAELEAVISKVVAEKNLDLFLLVITDILENDSLALAIGNEAAKVEKAFNVTLENNTALLKGVVSRKKQVVPVLTDAMAE [D13E],44 °C and 42 °C
5,MEKILIFGQQNPDTDTICSAIAYADLKNKLGFNAEPVRLGQVNGETQYALDYFKQESPRLVETAANEVNGVILVDHNERQQSIKDIEEVQVLEVIDHHRIANFETAEPLYYRAEPVGCTATILNKMYKENNVKIEKEIAGLMLSAIISDSLLFKSPTCTDQDVAAAKELAEIAGVDAEEYGLNMLKAGADLSKKTVEELISLDAKEFTLGSKKVEIAQVNTVDIEDVKKRQAELEAVISKVVAEKNLDLFLLVITDILENDSLALAIGNEAAKVEKAFNVTLENNTALLKGVVSRKKQVVPVLTDAMAE [H9Q],54 °C
6,MEKILIFGHQNPDTDTICSAIAYADLKNKLGFNAEPVRLGQVNGETQYALDYFKQESPRLVETAANEVNGVILVDHNERQQSIKDIEEVQVLEVIDHHRIANFETAEPLYYRAEPVGCTATILNKMYKENNVKIEKEIAGLMLSAIISDSLLFKSPTCTDQDVAAAKELAEIAGVDAEEYGLNMLKAGADLSKKTVEELISLEAKEFTLGSKKVEIAQVNTVDIEDVKKRQAELEAVISKVVAEKNLDLFLLVITDILENDSLALAIGNEAAKVEKAFNVTLENNTALLKGVVSRKKQVVPVLTDAMAE [D203E],42 °C

# Same assay, conditions: Bacillus subtilis (strain 168); pH 7.2; Thermal; CD; TES-KOH 21 mM; KCl 4 mM; transition: 3; reversible: No; structure 1K23; whole UniProt chain shown
row,Variant,Tm
1,MEKILIFGHQNPETDTICSAIAYADLKNKLGFNAEPVRLGQVNGETQYALDYFKQESPRLVETAANEVNGVILVDHNERQQSIKDIEEVQVLEVIDHHRIANFETAEPLYYRAEPVGCTATILNKMYKENNVKIEKEIAGLMLSAIISDSLLFKSPTCTDQDVAAAKELAEIAGVDAEEYGLNMLKAGADLSKKTVEELISLDAKEFTLGSKKVEIAQVNTVDIEDVKKRQAELEAVISKVVAEKNLDLFLLVITDILENDSLALAIGNEAAKVEKAFNVTLENNTALLKGVVSRKKQVVPVLTDAMAE [D13E],69 °C
